Results from article PMC4512625 (2015).
Ends that are not written are not given here.

Key:
human SPAK 452-547(end) = human SPAK 452-547(end) (human, UniProt Q9UEW8 452-545); test: FP
[1] = biological target: human SPAK 452-547 with L491A (human, UniProt Q9UEW8 452-545, L491A); test: FP

Kd (human SPAK 452-547(end)): 0.6 µM | Kd [1]: 88.2 µM
B1: Lumio-Green-labelled RFXV-motif-possessing peptide derived from WNK4 (EP4543) (peptide)
peptide: CCPGCCGGGGSEEGKPQLVGRFQVTSSK
modifications: not fully specified (N-terminus); cysteine pairing not given here; also: Lumio Green fluorophore bound to the N-terminal CCPGCC linker
